Assay results as given in patent publication KR20160086217A (dated 2016).

What was measured:
[1] = biological target: T1, c-Met (UniProt P08581 25-932, limits assumed); assay: SPR, Biacore T100; antibody (from GSKO 301 GS cells) captured on Human Fab binder on CM5 chip, c-Met as analyte 25 to 0.78 nmol, 1:1 kinetic fit
T1 construct: also called 항원인 c-Met

[2] = biological target: T1, c-Met; assay: SPR, Biacore T100; antibody (from GSKO GLUD1 301 GS cells) captured on Human Fab binder on CM5 chip, c-Met as analyte 25 to 0.78 nmol, 1:1 kinetic fit
[3] = biological target: T1, c-Met; assay: SPR, Biacore T100; antibody (from GSKO 301 GS cells) captured on Human Fab binder on CM5 chip, c-Met as analyte, 1:1 kinetic fit; rounded form of the value in r2
[4] = biological target: T1, c-Met; assay: SPR, Biacore T100; antibody (from GSKO GLUD1 301 GS cells) captured on Human Fab binder on CM5 chip, c-Met as analyte, 1:1 kinetic fit; rounded form of the value in r2

T1 sequence (P08581 25-932 limits assumed): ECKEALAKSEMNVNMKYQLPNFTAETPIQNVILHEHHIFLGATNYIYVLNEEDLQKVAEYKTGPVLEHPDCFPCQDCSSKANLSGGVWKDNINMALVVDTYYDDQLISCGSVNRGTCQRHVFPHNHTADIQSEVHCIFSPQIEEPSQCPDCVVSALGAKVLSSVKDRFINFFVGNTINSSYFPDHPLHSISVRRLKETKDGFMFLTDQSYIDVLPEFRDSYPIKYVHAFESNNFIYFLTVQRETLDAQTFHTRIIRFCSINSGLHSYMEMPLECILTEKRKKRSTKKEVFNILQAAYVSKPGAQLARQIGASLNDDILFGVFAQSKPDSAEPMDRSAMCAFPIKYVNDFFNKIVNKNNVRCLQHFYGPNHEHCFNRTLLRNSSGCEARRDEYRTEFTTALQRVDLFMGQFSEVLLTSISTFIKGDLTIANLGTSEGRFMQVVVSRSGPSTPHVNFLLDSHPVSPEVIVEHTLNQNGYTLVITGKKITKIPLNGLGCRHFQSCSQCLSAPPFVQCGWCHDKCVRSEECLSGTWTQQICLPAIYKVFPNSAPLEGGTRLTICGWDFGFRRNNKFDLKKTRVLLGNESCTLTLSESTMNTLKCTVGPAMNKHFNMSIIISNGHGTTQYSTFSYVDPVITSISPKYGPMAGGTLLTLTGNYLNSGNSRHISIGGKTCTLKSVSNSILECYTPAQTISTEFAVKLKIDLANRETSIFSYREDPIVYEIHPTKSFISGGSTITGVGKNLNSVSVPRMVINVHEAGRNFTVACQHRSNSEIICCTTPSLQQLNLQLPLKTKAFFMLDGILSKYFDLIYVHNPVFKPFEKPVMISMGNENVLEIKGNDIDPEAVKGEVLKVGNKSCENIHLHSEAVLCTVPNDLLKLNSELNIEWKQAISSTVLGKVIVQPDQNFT

Kd [1]: 0.0573 nM
Kd [2]: 0.0926 nM
Kd [3]: 0.06 nM
Kd [4]: 0.09 nM
B1: 항 c-Met 항체 L3-1Y/IgG2 (antibody, V domains shown)
VH: EVQLVESGGGLVQPGGSLRLSCAASGFTFTDYYMSWVRQAPGKGLEWLGFIRNKANGYTTEYSASVKGRFTISRDNSKNTLYLQMNSLRAEDTAVYYCARDNWFAYWGQGTLVTVSS
VL: DIQMTQSPSSLSASVGDRVTITCKSSQSLLASGNQNNYLAWYQQKPGKAPKMLIIWASTRVSGVPSRFSGSGSGTDFTLTISSLQPEDFATYYCQQSYSRPYTFGQGTKVEIKR
notes: also called S301-12A37 standard; S301-12A37
